B1: AnkB_repeats (24 ANK repeats of human 220 kDa ankyrin-B, residues 28–873) [human] / Cav1.3 peptide (mouse Cav1.3 residues 2134–2166), FITC-labeled [modified: FITC label (position not stated); FITC label (position not stated)] [mouse] (parent complex)
chain 1: KSDSNASFLRAARAGNLDKVVEYLKGGIDINTCNQNGLNALHLAAKEGHVGLVQELLGRGSSVDSATKKGNTALHIASLAGQAEVVKVLVKEGANINAQSQNGFTPLYMAAQENHIDVVKYLLENGANQSTATEDGFTPLAVALQQGHNQAVAILLENDTKGKVRLPALHIAARKDDTKSAALLLQNDHNADVQSKMMVNRTTESGFTPLHIAAHYGNVNVATLLLNRGAAVDFTARNGITPLHVASKRGNTNMVKLLLDRGGQIDAKTRDGLTPLHCAARSGHDQVVELLLERGAPLLARTKNGLSPLHMAAQGDHVECVKHLLQHKAPVDDVTLDYLTALHVAAHCGHYRVTKLLLDKRANPNARALNGFTPLHIACKKNRIKVMELLVKYGASIQAITESGLTPIHVAAFMGHLNIVLLLLQNGASPDVTNIRGETALHMAARAGQVEVVRCLLRNGALVDARAREEQTPLHIASRLGKTEIVQLLLQHMAHPDAATTNGYTPLHISAREGQVDVASVLLEAGAAHSLATKKGFTPLHVAAKYGSLDVAKLLLQRRAAADSAGKNGLTPLHVAAHYDNQKVALLLLEKGASPHATAKNGYTPLHIAAKKNQMQIASTLLNYGAETNIVTKQGVTPLHLASQEGHTDMVTLLLDKGANIHMSTKSGLTSLHLAAQEDKVNVADILTKHGADQDAHTKLGYTPLIVACHYGNVKMVNFLLKQGANVNAKTKNGYTPLHQAAQQGHTHIINVLLQHGAKPNATTANGNTALAIAKRLGYISVVDTLKVVTEEVTTTTTTITEKHKLNVPETMTEVLDVSDEEGDDTMTGDGGEYLRPEDLKELGDD
chain 2: ELQDFGPGYSDEEPDPGREEEDLADEMICITTL

The variants in the test derive from B1. Briefly: fluorescence polarisation; parent: 3.3e+03 nM. A general note: Polarisation of emitted light reports the rotation of a fluorescent probe.
Usually Kd stands for a measure of binding affinity in units of concentration. Turning to chain 1 L339Q, chain 1 F372Q, chain 1 L405Q, the Kd was 4 µM.

Turning to chain 1 I240Q, chain 1 L273Q, the Kd worked out at 8.2 µM.

On to chain 1 F104Q, chain 1 F137Q, for which the Kd amounted to 3.3 µM.

The record behind these values is article PMC4358367, “Structural basis of diverse membrane target recognitions by ankyrins” (eLife, 2014).
